From patent US20200308257A1 (VISTERRA, published 2020) come the findings set out here.

What all share (test): cell-based or functional assay
Experiment [1] addresses hemagglutinin (HA) of influenza A/South Africa/80811/2017 (H1N1) (influenza A virus (H1N1)).
In experiment [2] the target is hemagglutinin (HA) of influenza A/South Africa/81130/2017 (H3N2) (influenza A virus (H3N2)).
In experiment [3] the target is T1, hemagglutinin (HA) of influenza A/PR/8/1934 (H1N1) (influenza A virus (H1N1), UniProt P03452 18-565).
T1 sequence (P03452 18-565 limits assumed): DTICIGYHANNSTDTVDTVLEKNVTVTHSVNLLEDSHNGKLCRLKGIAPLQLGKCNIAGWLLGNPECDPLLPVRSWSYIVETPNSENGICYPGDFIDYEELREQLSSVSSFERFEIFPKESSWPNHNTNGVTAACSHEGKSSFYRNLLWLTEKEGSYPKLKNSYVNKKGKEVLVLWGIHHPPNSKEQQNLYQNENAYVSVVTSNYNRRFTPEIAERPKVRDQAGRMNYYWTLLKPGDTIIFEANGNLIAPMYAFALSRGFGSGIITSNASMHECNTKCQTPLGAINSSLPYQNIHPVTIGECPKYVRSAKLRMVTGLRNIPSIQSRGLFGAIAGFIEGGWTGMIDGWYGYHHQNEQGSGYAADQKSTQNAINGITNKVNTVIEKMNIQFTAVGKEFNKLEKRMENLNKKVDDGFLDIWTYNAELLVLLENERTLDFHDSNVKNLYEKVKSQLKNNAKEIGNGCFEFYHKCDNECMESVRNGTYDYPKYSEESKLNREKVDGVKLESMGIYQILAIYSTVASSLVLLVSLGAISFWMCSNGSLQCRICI
Experiment [4] has as its target hemagglutinin (HA) of influenza A/South Africa/80919/2017 (H3N2) (influenza A virus (H3N2)).
Experiment [5] concerns the target hemagglutinin (HA) of influenza A/South Africa/80308/2017 (H3N2) (influenza A virus (H3N2)).
Experiment [6] has as its target hemagglutinin (HA) of influenza A/South Africa/0808006/2018 (H1N1) (influenza A virus (H1N1)).
The target in experiment [7] is hemagglutinin (HA) of influenza A/South Africa/80839/2017 (H3N2) (influenza A virus (H3N2)).
For experiment [8], the target named is hemagglutinin (HA) of influenza A/South Africa/80521/2017 (H3N2) (influenza A virus (H3N2)).
Experiment [9] concerns the target hemagglutinin (HA) of influenza A/South Africa/80316/2017 (H3N2) (influenza A virus (H3N2)).
For experiment [10], the target named is hemagglutinin (HA) of influenza A/South Africa/80860/2017 (H1N1) (influenza A virus (H1N1)).
Experiment [11] addresses hemagglutinin (HA) of influenza A/South Africa/81313/2017 (H3N2) (influenza A virus (H3N2)).
Experiment [12] deals with hemagglutinin (HA) of influenza A/South Africa/80836/2017 (H1N1) (influenza A virus (H1N1)).
For experiment [13], the target named is hemagglutinin (HA) of influenza A/South Africa/80714/2017 (H3N2) (influenza A virus (H3N2)).
Experiment [14] addresses hemagglutinin (HA) of influenza A/South Africa/80837/2017 (H1N1) (influenza A virus (H1N1)).
Experiment [15] addresses T1, hemagglutinin (HA) of influenza …. The source holds these as a separate data set.

B1: VIS410 (antibody, V domains shown)
VH: QVQLLETGGGLVKPGQSLKLSCAASGFTFTSYAMHWVRQPPGKGLEWVAVVSYDGNYKYYADSVQGRFTISRDNSKNTLYLQMNSLRAEDTAVYYCAKDSRLRSLLYFEWLSQGYFNPWGQGTTLTVSS
VL: DIQMTQSPSSLSASVGDRVTITCRSSQSITFDYKNYLAWYQQKPGKAPKLLIYWGSYLESGVPSRFSGSGSGTDFTLTISSLQPEDFATYYCQQHYRTPPSFGQGTKVEIK
With B1, the “IC50, phenotypic IC50 assay (virus infection of MDCK cells)” value (“IC50, phenotypic IC50 assay” for short) in experiment [1] was found to be 0.38 µg/mL; in [2], 1 µg/mL; in [4] it was 2.55 µg/mL; in experiment [5], 0.91 µg/mL; in experiment [6] it was 0.42 µg/mL; in experiment [7], 0.41 µg/mL. For the same molecule, the “IC50, phenotypic IC50 assay” value in experiment [8] is 1.09 µg/mL; in experiment [9], 0.57 µg/mL; in experiment [10] it was 0.26 µg/mL; in experiment [11], 1.38 µg/mL; in [12], 0.73 µg/mL; in experiment [13], 0.13 µg/mL. The “IC50, phenotypic IC50 assay” value in experiment [14] is 0.25 µg/mL. For the same molecule, in experiment [3], the “IC50 (µg/mL), baloxavir-sensitive A/Puerto Rico/8/1934_H1N1 WT virus” value is 0.3 µg/mL. Moreover, the “EC50, antiviral activity against wild-type A/PR/8/1934 (H1N1) virus” value in experiment [15] was 7.4 nM.
